The values that follow come from patent publication US20200339692A1 (JIANGSU HENGRUI MEDICINE, published 2020).

Substitutions are numbered along the chain they refer to.

First the molecules themselves.
B1: H6L11 (antibody, human IgG1, kappa, V domains shown)
VH: QVQLQESGPGLVKPSQTLSLTCTVSGGSISNDYWTWIRQHPGKGLEYIGFISRAGSTYNTPSLKGRVTISRDTSKNQFSLKLSSVTAADTAVYYCARSGGWLAPFDYWGRGTLVTVSS
VL: DIVMTQSPDSLAVSLGERATINCKSSQSLFYHSNQKHSLAWYQQKPGQPPKLLIYGASTRESGVPDRFSGSGSGTDFTLTISSLQAEDVAVYYCQQYYGYPYTFGGGTKVEIKR
notes: also called 9-2 H6 and 9-2 L11
B2: H5L11 (antibody, human IgG1, kappa, V domains shown)
VH: QVQLQESGPGLVKPSQTLSLTCTVSGGSISDGSAYWSWIRQHPGKGLEYIGFISRAGSTYNTPSLKGRVTISRDTSKNQFSLKLSSVTAADTAVYYCARSGGWLAPFDYWGRGTLVTVSS
VL: B1 VL
notes: from the HRP00049 mutant library; also called 9-2 H5 and 9-2 L11
B3: H7L11 (antibody, human IgG1, kappa, V domains shown)
VH: B1 VH with F50M, R53V, N59H
VL: B1 VL
notes: also called 9-2 H7 and 9-2 L11
B4: H18L61 (antibody, human IgG1, kappa, V domains shown)
VH: QVQLVQSGAEVKKPGASVKVSCKASGYTFTSYWMHWVRQAPGQGLEWMGRISPSSGMAVYNEKFKNRVTMTRDTSTSTVYMELSSLRSEDTAVYYCARGGSSYDYFDYWGQGTTVTVSS
VL: DIVLTQSPASLAVSPGQRATITCRASESVSIHGTHLMHWYQQKPGQPPKLLIYAASNLESGVPARFSGSGSGTDFTLTINPVEAEDTANYYCQQSFEDPLTFGQGTKLEIKR
notes: also called 24D5 H18 and 24D5 L61
B5: H12L61 (antibody, human IgG1, kappa, V domains shown)
VH: B4 VH with S52T, M57F, V59M
VL: B4 VL
notes: also called 24D5 H12 and 24D5 L61
B6: H16L61 (antibody, human IgG1, kappa)
heavy: not shown
light: DIVLTQSPASLAVSPGQRATITCRASESVSIHGTHLMHWYQQKPGQPPKLLIYAASNLESGVPARFSGSGSGTDFTLTINPVEAEDTANYYCQQSFEDPLTFGQGTKLEIKRTVAAPSVFIFPPSDEQLKSGTASVVCLLNNFYPREAKVQWKVDNALQSGNSQESVTEQDSKDSTYSLSSTLTLSKADYEKHKVYACEVTHQGLSSPVTKSFNRGEC
notes: also called 24D5 H16 and 24D5 L61
B7: H15L61 (antibody, human IgG1, kappa, V domains shown)
VH: B4 VH with S25N, S31D, Y32K, H35M, S52T, M57F, V59M
VL: B4 VL
notes: also called 24D5 H15 and 24D5 L61
B8: H13L61 (antibody, human IgG1, kappa)
heavy: not shown
light: B6 light
notes: also called 24D5 H13 and 24D5 L61
B9: H12L64 (antibody, human IgG1, kappa, V domains shown)
VH: B4 VH with S52T, M57F, V59M
VL: B4 VL with A54V, N57Y, L58A, E59A
notes: from the HRP00052 mutant library; also called 24D5 H12 and 24D5 L64
B10: H19L61 (antibody, human IgG1, kappa, V domains shown)
VH: B4 VH with S54G, S55G, M57F, A58T, V59L
VL: B4 VL
notes: also called 24D5 H19 and 24D5 L61
B11: H17L61 (antibody, human IgG1, kappa, V domains shown)
VH: B4 VH with S52G, S54N, S55L, M57W, V59M, F64Y, R87G
VL: B4 VL
notes: also called 24D5 H17 and 24D5 L61
B12: H14L61 (antibody, human IgG1, kappa, V domains shown)
VH: B4 VH with S52H, S55L, M57L, A58P, V59L
VL: B4 VL
notes: also called 24D5 H14 and 24D5 L61
B13: H21L67 (antibody, human IgG1, kappa, V domains shown)
VH: B4 VH with S31D, Y32K, H35M, S52T, M57F, V59M
VL: B4 VL with A54V, L58V
notes: also called 24D5 H21 and 24D5 L67
B14: H21L69 (antibody, human IgG1, kappa, V domains shown)
VH: B4 VH with S31D, Y32K, H35M, S52T, M57F, V59M
VL: B4 VL with A54V, L58V, E59Y
notes: also called 24D5 H21 and 24D5 L69
B15: H21L66 (antibody, human IgG1, kappa, V domains shown)
VH: B4 VH with S31D, Y32K, H35M, S52T, M57F, V59M
VL: B4 VL with A54V, L58V, E59F
notes: also called 24D5 H21 and 24D5 L66
B16: HRP00052-IgG1 (antibody)
heavy: not shown
light: B6 light

T2 sequence (G7PSE7 entry or part of it C08H C08H): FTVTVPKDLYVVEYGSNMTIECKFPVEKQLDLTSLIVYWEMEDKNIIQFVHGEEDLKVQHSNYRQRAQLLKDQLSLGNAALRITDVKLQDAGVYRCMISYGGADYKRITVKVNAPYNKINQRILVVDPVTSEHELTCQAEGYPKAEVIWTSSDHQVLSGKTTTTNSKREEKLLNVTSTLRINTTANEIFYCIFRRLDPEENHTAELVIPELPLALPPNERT
mouse PD-L1 (ligand blocking test), sequence (Q9EP73 19-238 limits assumed): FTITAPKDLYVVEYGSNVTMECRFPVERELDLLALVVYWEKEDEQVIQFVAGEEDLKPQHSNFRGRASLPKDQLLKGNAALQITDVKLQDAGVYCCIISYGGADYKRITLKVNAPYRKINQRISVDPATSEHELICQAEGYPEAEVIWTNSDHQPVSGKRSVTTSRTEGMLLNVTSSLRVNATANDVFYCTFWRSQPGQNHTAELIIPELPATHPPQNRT

For one assay, the target named is T1, human PD-L1 (Cat. #10084-H08H, Sino Biological) (human, UniProt Q9NZQ7 19-239).
T1 construct: Bought recombinant protein used in the Biacore test; also called hPDL1; hPD-L1
T1 sequence (Q9NZQ7 19-239 limits assumed): as the sequence (G7PSE7 entry or part of it C08H C08H) above, with T33A, S34A, N62S, Q68R, R82Q, L173F, A185T, I192T, L215H counted along it
Kind of assay: SPR, Biacore X100, 1:1 Langmuir. As for the experimental part:
(§1) According to the method in the manual of human anti-capture kit (Cat. A BR-1008-39, GE), the human anti-capture antibody was covalently coupled to biosensor chip CM5 (Cat. #BR-1000-12, GE) so that a certain amount of human PD-L1 (Cat. #10084-H08H, Sino Biological) monkey PD-L1 (Cat. #90251-C08H, Sino Biological), mouse PD-L1 (Cat. #50010-M08H, Sino Biological) were affinity captured. The affinity of PD-L1 antibody reacting with PD-L1 was measured with Biacore X100, GE instrument.
Background: Surface plasmon resonance follows binding to a sensor surface in real time, without labels.
Broadly, the Kd is the free concentration of one partner at which half of the binding sites on the other are occupied at equilibrium, for simple one-to-one binding. The koff is the first-order rate constant of dissociation. Usually kon stands for a measure of how fast the partners come together. Turning to B1, the equilibrium dissociation constant (Kd) was determined as 0.227 nM, the off-rate (koff) was 0.000113 s⁻¹ and the kon was found to be 495000 M⁻¹ s⁻¹.
In turn, B2 displayed a Kd of 0.203 nM, an off-rate (koff) of 0.000124 s⁻¹ and a kon of 611000 M⁻¹ s⁻¹.
The matching figures for B3: 1.39 nM, 0.000389 s⁻¹ and 281000 M⁻¹ s⁻¹.
The matching figures for B4: 0.033 nM, 5.63e-05 s⁻¹ and 1.71e+06 M⁻¹ s⁻¹.
The matching figures for B5: 0.0326 nM, 7.1e-05 s⁻¹ and 2.18e+06 M⁻¹ s⁻¹.
Take B6: the affinity, expressed as Kd, was 0.0254 nM; the koff stood at 6.43e-05 s⁻¹; the kon amounted to 2.53e+06 M⁻¹ s⁻¹.
The matching figures for B7: 0.0325 nM, 7.88e-05 s⁻¹ and 2.43e+06 M⁻¹ s⁻¹.
The matching figures for B8: 0.0261 nM, 6.66e-05 s⁻¹ and 2.55e+06 M⁻¹ s⁻¹.
On to B9, for which the affinity, expressed as Kd, was 0.0326 nM; the koff is 7.1e-05 s⁻¹; the kon is 2.18e+06 M⁻¹ s⁻¹.
The matching figures for B10: 0.0327 nM, 7.65e-05 s⁻¹ and 2.34e+06 M⁻¹ s⁻¹.
Take B11: binding was put at a Kd of 0.0393 nM, the koff is 9.53e-05 s⁻¹ and the kon was 2.43e+06 M⁻¹ s⁻¹.
For B12 the same measures were 0.038 nM, 9.1e-05 s⁻¹ and 2.4e+06 M⁻¹ s⁻¹.

Another assay has as its target T2, monkey PD-L1 (Cat. #90251-C08H, Sino Biological) (monkey (cyno), UniProt G7PSE7 19-239).
T2 construct: Bought recombinant protein used in the Biacore test; also called Monkey (cyno) PD-L1; Cyno PDL1
Kind of assay: SPR, Biacore X100, 1:1 Langmuir. As for the experimental part:
as §1
Take B1: the Kd came out at 0.318 nM, the koff was found to be 0.000151 s⁻¹ and the kon was 474000 M⁻¹ s⁻¹.
Consider B2, for which the Kd came out at 0.211 nM, the koff amounted to 0.000121 s⁻¹ and the on-rate constant (kon) came out at 572000 M⁻¹ s⁻¹.
In the case of B4, the Kd was determined as 0.048 nM, the koff was determined as 7.68e-05 s⁻¹ and the kon was determined as 1.6e+06 M⁻¹ s⁻¹.
B9 yielded a Kd of 0.0458 nM, an off-rate (koff) of 8.38e-05 s⁻¹ and a kon of 1.83e+06 M⁻¹ s⁻¹.

The target of the next assay is T3, mouse PD-L1 (Cat. #50010-M08H, Sino Biological) (mouse, UniProt Q9EP73 19-238).
T3 construct: Bought recombinant protein used in the Biacore test
T3 sequence (Q9EP73 19-238 limits assumed, stated change not applied): as the sequence (Q9EP73 19-238 limits assumed) above
The experiment in a line: SPR, Biacore X100, 1:1 Langmuir. As for the experimental part: as §1
The molecule B1 came in with a dissociation constant (Kd) of 18.1 nM, a koff of 0.0119 s⁻¹ and a kon of 655000 M⁻¹ s⁻¹.
The matching figures for B2: 69.6 nM, 0.0564 s⁻¹ and 811000 M⁻¹ s⁻¹.
The matching figures for B3: 135 nM, 0.0182 s⁻¹ and 135000 M⁻¹ s⁻¹.

The next assay concerns the target T1, human PD-L1 (Cat. #10084-H08H, Sino …). The experiment in a line: SPR, Biacore X100, 1:1 Langmuir. The source holds these as a separate data set. The method, then: as §1
As to B13, binding was put at a Kd of 0.0522 nM, the koff stood at 0.00012 s⁻¹ and the kon was found to be 2.3e+06 M⁻¹ s⁻¹.
As for B14, binding was characterised by a dissociation constant (Kd) of 0.0563 nM, the off-rate (koff) stood at 0.000129 s⁻¹ and the kon stood at 2.29e+06 M⁻¹ s⁻¹.
For B15 the same measures were 0.0533 nM, 0.000104 s⁻¹ and 1.95e+06 M⁻¹ s⁻¹.

The target of another assay is T2, monkey PD-L1 (Cat. #90251-C08H, Sino …). The experiment in a line: SPR, Biacore X100, 1:1 Langmuir. The source holds these as a separate data set. As for the experimental part:
as §1
For the molecule B13, binding was put at a Kd of 0.0528 nM, the off-rate constant (koff) was found to be 0.000124 s⁻¹ and the on-rate (kon) was determined as 2.35e+06 M⁻¹ s⁻¹.
The matching figures for B14: 0.0526 nM, 0.000119 s⁻¹ and 2.27e+06 M⁻¹ s⁻¹.
The matching figures for B15: 0.0563 nM, 0.000122 s⁻¹ and 2.17e+06 M⁻¹ s⁻¹.

A further assay has as its target mouse PD-L1 (ligand blocking test) (mouse, UniProt Q9EP73 19-238, limits assumed). Kind of assay: blocking of mouse PD-L1/PD-1 binding, PD-L1 5 ug/ml; competitor PD-1.
For orientation: IC50 means the concentration that gives 50% inhibition. B1 had a concentration for half-maximal inhibition (IC50) of 1.23 ng/mL.
On the same count and under the same terms, the value for B2 was 0.927 ng/mL.

In the next assay the target is T4, human PD-L1 (ligand blocking test) (human, UniProt Q9NZQ7 19-238, limits assumed). The experiment in a line: blocking of human PD-L1/PD-1 binding, PD-L1 10 ug/ml; competitor PD-1.
T4 sequence (Q9NZQ7 19-238 limits assumed): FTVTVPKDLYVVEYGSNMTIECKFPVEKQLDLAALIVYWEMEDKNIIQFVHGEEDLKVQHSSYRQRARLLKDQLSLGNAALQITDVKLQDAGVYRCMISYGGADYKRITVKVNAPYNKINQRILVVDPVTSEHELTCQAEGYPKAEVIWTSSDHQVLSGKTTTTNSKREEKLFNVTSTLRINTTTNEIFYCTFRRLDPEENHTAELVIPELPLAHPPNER
On to B1, for which the IC50 was 0.29 ng/mL.
On the same count and under the same terms, the value for B2 was 0.168 ng/mL.
Regarding B4, the IC50 is 0.228 ng/mL.
The same measure, in the same setting: the value for B16 was 0.338 ng/mL.
On the same count and under the same terms, the value for B9 was 0.215 ng/mL.

A further assay concerns the target T4, human PD-L1 (ligand blocking test). The experiment in a line: blocking of B7-1 binding to human PD-L1, PD-L1 1 ug/ml; competitor B7-1.
B1 registered an IC50 of 1.69 ng/mL.
Molecule B2 had an IC50 of 1.45 ng/mL.
On the same count and under the same terms, the value for B4 was 1.38 ng/mL; that for B16 was 1.65 ng/mL; that for B9 was 0.826 ng/mL.
